Results from paper PMC9482650, “Quantitative fragmentomics allow affinity mapping of interactomes” (Nature Communications, 2022).

Experiments:
Assay in all cases: holdup assay
Set-up in all cases: key: below the threshold = too weak to quantify, mostly under pKd 3.1 to 4
PTPN3, P26045 = molecular target: PTPN3, P26045
ARHGAP21, Q5T5U3 = molecular target: T1, ARHGAP21, Q5T5U3
T1 sequence (Q5T5U3 45-169, limits assumed, looked up): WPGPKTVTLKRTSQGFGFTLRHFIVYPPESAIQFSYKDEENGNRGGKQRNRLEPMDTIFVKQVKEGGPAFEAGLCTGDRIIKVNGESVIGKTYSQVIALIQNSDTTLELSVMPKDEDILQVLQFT

PARD3_3, Q8TEW0 = molecular target: PARD3_3, Q8TEW0
Chain of PARD3_3, Q8TEW0 (Q8TEW0 582-685): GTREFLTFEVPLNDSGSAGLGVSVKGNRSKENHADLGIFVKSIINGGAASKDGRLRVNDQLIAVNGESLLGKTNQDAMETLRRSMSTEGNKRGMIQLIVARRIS

RAPGEF6, Q8TEU7 = molecular target: T2, RAPGEF6, Q8TEU7
T2 sequence (Q8TEU7 525-625, limits assumed, looked up): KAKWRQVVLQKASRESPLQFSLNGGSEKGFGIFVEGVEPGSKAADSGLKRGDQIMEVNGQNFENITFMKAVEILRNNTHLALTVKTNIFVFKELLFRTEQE

FRMPD1, Q5SYB0 = molecular target: T3, FRMPD1, Q5SYB0
T3 sequence (Q5SYB0 52-145, limits assumed, looked up): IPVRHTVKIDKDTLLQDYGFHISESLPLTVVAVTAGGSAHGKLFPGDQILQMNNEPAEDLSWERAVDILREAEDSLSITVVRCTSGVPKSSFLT

MAGI2_4, Q86UL8 = molecular target: MAGI2_4, Q86UL8
Chain of MAGI2_4, Q86UL8 (Q86UL8 772-865): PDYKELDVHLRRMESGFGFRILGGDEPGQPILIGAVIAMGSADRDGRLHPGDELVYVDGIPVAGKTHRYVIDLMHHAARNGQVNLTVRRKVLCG

LDB3, O75112 = molecular target: LDB3, O75112
Chain of LDB3, O75112 (O75112 1-94): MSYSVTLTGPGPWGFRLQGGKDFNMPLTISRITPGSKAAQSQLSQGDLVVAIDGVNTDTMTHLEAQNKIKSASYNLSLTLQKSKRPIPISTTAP

APBA3_1, O96018 = molecular target: T4, APBA3_1, O96018
T4 sequence (O96018 389-490, limits assumed, looked up): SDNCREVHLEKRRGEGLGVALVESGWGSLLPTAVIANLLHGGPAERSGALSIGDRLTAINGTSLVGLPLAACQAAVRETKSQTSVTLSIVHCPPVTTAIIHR

NHERF4_1, Q86UT5-2 = molecular target: NHERF4_1, Q86UT5-2
Chain of NHERF4_1, Q86UT5-2 (Q86UT5 other isoform, or with tags, fused parts or gaps): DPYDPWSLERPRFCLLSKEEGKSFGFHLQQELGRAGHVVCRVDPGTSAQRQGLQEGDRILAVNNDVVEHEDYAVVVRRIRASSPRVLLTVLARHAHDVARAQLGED

APBA1_1, Q02410 = molecular target: T5, APBA1_1, Q02410
T5 sequence (Q02410 651-752, limits assumed, looked up): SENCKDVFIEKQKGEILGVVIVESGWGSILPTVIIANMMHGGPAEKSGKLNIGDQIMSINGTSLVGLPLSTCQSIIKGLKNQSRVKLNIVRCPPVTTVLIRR

NHERF4_2, Q86UT5 = molecular target: NHERF4_2, Q86UT5
Chain of NHERF4_2, Q86UT5 (Q86UT5 220-308): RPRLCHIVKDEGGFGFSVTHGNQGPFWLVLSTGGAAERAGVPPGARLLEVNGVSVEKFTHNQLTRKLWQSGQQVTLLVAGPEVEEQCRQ

GRID2IP_1, A4D2P6 = molecular target: GRID2IP_1, A4D2P6
Chain of GRID2IP_1, A4D2P6 (A4D2P6 1-87): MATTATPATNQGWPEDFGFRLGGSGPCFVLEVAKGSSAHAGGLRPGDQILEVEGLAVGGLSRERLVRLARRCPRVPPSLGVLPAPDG

DLG2_2, Q15700 = molecular target: DLG2_2, Q15700
Chain of DLG2_2, Q15700 (Q15700 189-283): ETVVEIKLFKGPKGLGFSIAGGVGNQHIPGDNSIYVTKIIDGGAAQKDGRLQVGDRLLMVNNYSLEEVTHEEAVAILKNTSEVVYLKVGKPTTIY

Inadl_8, Q8NI35 = molecular target: Inadl_8, Q8NI35
Chain of Inadl_8, Q8NI35 (Q8NI35 1425-1530): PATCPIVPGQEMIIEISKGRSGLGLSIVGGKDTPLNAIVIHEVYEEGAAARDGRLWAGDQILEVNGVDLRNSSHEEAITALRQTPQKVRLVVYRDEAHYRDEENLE

LIN7C, Q9NUP9 = molecular target: T6, LIN7C, Q9NUP9
T6 sequence (Q9NUP9 88-185, limits assumed, looked up): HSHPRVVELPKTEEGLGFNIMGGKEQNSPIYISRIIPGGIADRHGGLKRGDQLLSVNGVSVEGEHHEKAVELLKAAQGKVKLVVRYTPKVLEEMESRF

LNX2_3, Q8N448 = molecular target: T7, LNX2_3, Q8N448
T7 sequence (Q8N448 463-564, limits assumed, looked up): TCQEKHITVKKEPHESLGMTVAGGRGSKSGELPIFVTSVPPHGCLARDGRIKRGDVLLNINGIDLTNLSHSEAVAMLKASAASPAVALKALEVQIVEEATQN

PDLIM1, O00151 = molecular target: PDLIM1, O00151
Chain of PDLIM1, O00151 (O00151 1-87): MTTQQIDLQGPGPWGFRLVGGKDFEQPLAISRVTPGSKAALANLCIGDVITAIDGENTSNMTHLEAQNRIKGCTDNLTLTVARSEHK

TJP3_3, O95049 = molecular target: T8, TJP3_3, O95049
T8 sequence (O95049 375-456, limits assumed, looked up): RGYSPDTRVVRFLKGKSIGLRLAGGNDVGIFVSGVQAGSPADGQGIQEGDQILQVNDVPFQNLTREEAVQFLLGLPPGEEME

AHNAK1, Q09666 = molecular target: AHNAK1, Q09666
Chain of AHNAK1, Q09666 (Q09666 4-100): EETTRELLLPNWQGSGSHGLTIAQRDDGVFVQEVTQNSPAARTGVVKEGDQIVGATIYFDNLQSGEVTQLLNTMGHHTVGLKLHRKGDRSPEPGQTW

FRMPD2_1, Q68DX3 = molecular target: FRMPD2_1, Q68DX3
Chain of FRMPD2_1, Q68DX3 (Q68DX3 770-861): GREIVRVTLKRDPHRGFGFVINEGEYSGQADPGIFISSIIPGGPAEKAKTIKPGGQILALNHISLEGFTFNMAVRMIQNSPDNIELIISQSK

Inadl_2, Q8NI35 = molecular target: Inadl_2, Q8NI35
Chain of Inadl_2, Q8NI35 (Q8NI35 238-335): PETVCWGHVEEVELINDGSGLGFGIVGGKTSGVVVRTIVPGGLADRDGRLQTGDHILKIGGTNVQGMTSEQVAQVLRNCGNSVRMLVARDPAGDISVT

LRRC7, Q96NW7 = molecular target: T9, LRRC7, Q96NW7
T9 sequence (Q96NW7 1440-1537, limits assumed, looked up): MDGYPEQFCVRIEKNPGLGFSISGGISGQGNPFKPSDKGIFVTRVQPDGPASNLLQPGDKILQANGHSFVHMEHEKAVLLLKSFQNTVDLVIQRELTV

MAGI3_2, Q5TCQ9 = molecular target: MAGI3_2, Q5TCQ9
Chain of MAGI3_2, Q5TCQ9 (Q5TCQ9 398-503): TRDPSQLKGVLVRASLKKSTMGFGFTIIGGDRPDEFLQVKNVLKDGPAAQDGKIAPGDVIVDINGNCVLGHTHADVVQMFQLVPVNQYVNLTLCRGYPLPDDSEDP

Inadl_4, Q8NI35 = molecular target: Inadl_4, Q8NI35
Chain of Inadl_4, Q8NI35 (Q8NI35 547-651): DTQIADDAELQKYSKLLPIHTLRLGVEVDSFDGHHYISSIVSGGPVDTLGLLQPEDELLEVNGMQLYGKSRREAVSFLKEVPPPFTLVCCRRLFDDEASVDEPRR

SHANK1, Q9Y566 = molecular target: T10, SHANK1, Q9Y566
T10 sequence (Q9Y566 658-767, limits assumed, looked up): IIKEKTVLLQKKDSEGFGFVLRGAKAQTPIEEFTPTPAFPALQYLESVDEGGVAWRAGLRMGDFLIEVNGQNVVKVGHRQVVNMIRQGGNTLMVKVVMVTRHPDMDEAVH

MAGI2_3, Q86UL8 = molecular target: MAGI2_3, Q86UL8
Chain of MAGI2_3, Q86UL8 (Q86UL8 600-682): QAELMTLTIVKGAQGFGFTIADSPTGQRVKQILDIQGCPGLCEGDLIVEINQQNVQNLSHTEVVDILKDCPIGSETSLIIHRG

DLG3_3, Q92796 = molecular target: T11, DLG3_3, Q92796
T11 sequence (Q92796 374-475, limits assumed, looked up): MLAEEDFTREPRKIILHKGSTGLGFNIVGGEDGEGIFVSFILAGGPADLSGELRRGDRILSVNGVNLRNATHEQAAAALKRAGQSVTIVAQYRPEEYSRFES

[1] = modified: phospho on T at position -2 from the C-terminal residue
[2] = plain residues with an end cap or a label only (N-terminal biotin on a linker: ado-ado)

Chain of PTPN3, P26045 (P26045 505-587): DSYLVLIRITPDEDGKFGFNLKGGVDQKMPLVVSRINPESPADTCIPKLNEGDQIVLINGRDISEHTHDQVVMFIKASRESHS

## SKPTRRETEV [HPV35-E6_-2P, P27228]
PTPN3, P26045; [1]
  pKd: 3.98
ARHGAP21, Q5T5U3; [1]
  pKd: 4.08
PARD3_3, Q8TEW0; [1]
  pKd: below the threshold
RAPGEF6, Q8TEU7; [1]
  pKd: below the threshold
FRMPD1, Q5SYB0; [1]
  pKd: below the threshold
MAGI2_4, Q86UL8; [1]
  pKd: below the threshold
LDB3, O75112; [1]
  pKd: below the threshold
APBA3_1, O96018; [1]
  pKd: below the threshold
NHERF4_1, Q86UT5-2; [1]
  pKd: 3.6
APBA1_1, Q02410; [1]
  pKd: below the threshold
NHERF4_2, Q86UT5; [1]
  pKd: below the threshold
GRID2IP_1, A4D2P6; [1]
  pKd: below the threshold
DLG2_2, Q15700; [1]
  pKd: 3.51
Inadl_8, Q8NI35; [1]
  pKd: below the threshold
LIN7C, Q9NUP9; [1]
  pKd: 4.05
LNX2_3, Q8N448; [1]
  pKd: below the threshold
PDLIM1, O00151; [1]
  pKd: below the threshold
TJP3_3, O95049; [1]
  pKd: below the threshold
AHNAK1, Q09666; [1]
  pKd: below the threshold
FRMPD2_1, Q68DX3; [1]
  pKd: below the threshold
Inadl_2, Q8NI35; [1]
  pKd: below the threshold
LRRC7, Q96NW7; [1]
  pKd: below the threshold
MAGI3_2, Q5TCQ9; [1]
  pKd: below the threshold
Inadl_4, Q8NI35; [1]
  pKd: below the threshold
SHANK1, Q9Y566; [1]
  pKd: below the threshold
MAGI2_3, Q86UL8; [1]
  pKd: below the threshold
DLG3_3, Q92796; [1]
  pKd: below the threshold

## LRSPRTPSEV [OR10G3, Q8NGC4]
PTPN3, P26045; [2]
  pKd: 4.26
ARHGAP21, Q5T5U3; [2]
  pKd: 3.97
PARD3_3, Q8TEW0; [2]
  pKd: below the threshold
RAPGEF6, Q8TEU7; [2]
  pKd: below the threshold
FRMPD1, Q5SYB0; [2]
  pKd: below the threshold
MAGI2_4, Q86UL8; [2]
  pKd: below the threshold
LDB3, O75112; [2]
  pKd: below the threshold
APBA3_1, O96018; [2]
  pKd: below the threshold
NHERF4_1, Q86UT5-2; [2]
  pKd: 3.63
APBA1_1, Q02410; [2]
  pKd: below the threshold
NHERF4_2, Q86UT5; [2]
  pKd: below the threshold
GRID2IP_1, A4D2P6; [2]
  pKd: below the threshold
DLG2_2, Q15700; [2]
  pKd: 3.55
Inadl_8, Q8NI35; [2]
  pKd: 4.18
LIN7C, Q9NUP9; [2]
  pKd: 3.88
LNX2_3, Q8N448; [2]
  pKd: below the threshold
PDLIM1, O00151; [2]
  pKd: below the threshold
TJP3_3, O95049; [2]
  pKd: below the threshold
AHNAK1, Q09666; [2]
  pKd: below the threshold
FRMPD2_1, Q68DX3; [2]
  pKd: below the threshold
Inadl_2, Q8NI35; [2]
  pKd: below the threshold
LRRC7, Q96NW7; [2]
  pKd: 3.48
MAGI3_2, Q5TCQ9; [2]
  pKd: 4.4
Inadl_4, Q8NI35; [2]
  pKd: below the threshold
SHANK1, Q9Y566; [2]
  pKd: below the threshold
MAGI2_3, Q86UL8; [2]
  pKd: 3.55
DLG3_3, Q92796; [2]
  pKd: below the threshold

## RRRESYSTTV [EVI5, O60447]
PTPN3, P26045; [2]
  pKd: 4.31
ARHGAP21, Q5T5U3; [2]
  pKd: 3.82
PARD3_3, Q8TEW0; [2]
  pKd: below the threshold
RAPGEF6, Q8TEU7; [2]
  pKd: below the threshold
FRMPD1, Q5SYB0; [2]
  pKd: below the threshold
MAGI2_4, Q86UL8; [2]
  pKd: 4.63
LDB3, O75112; [2]
  pKd: below the threshold
APBA3_1, O96018; [2]
  pKd: below the threshold
NHERF4_1, Q86UT5-2; [2]
  pKd: below the threshold
APBA1_1, Q02410; [2]
  pKd: below the threshold
NHERF4_2, Q86UT5; [2]
  pKd: below the threshold
GRID2IP_1, A4D2P6; [2]
  pKd: below the threshold
DLG2_2, Q15700; [2]
  pKd: 5.54
Inadl_8, Q8NI35; [2]
  pKd: 4.06
LIN7C, Q9NUP9; [2]
  pKd: 4.31
LNX2_3, Q8N448; [2]
  pKd: below the threshold
PDLIM1, O00151; [2]
  pKd: below the threshold
TJP3_3, O95049; [2]
  pKd: below the threshold
AHNAK1, Q09666; [2]
  pKd: below the threshold
FRMPD2_1, Q68DX3; [2]
  pKd: 3.74
Inadl_2, Q8NI35; [2]
  pKd: below the threshold
LRRC7, Q96NW7; [2]
  pKd: below the threshold
MAGI3_2, Q5TCQ9; [2]
  pKd: 5.18
Inadl_4, Q8NI35; [2]
  pKd: below the threshold
SHANK1, Q9Y566; [2]
  pKd: 4.36
MAGI2_3, Q86UL8; [2]
  pKd: below the threshold
DLG3_3, Q92796; [2]
  pKd: 4.28

## RRLPGKETMA [GRIK2, Q13002]
PTPN3, P26045; [2]
  pKd: below the threshold
ARHGAP21, Q5T5U3; [2]
  pKd: below the threshold
PARD3_3, Q8TEW0; [2]
  pKd: below the threshold
RAPGEF6, Q8TEU7; [2]
  pKd: 3.53
FRMPD1, Q5SYB0; [2]
  pKd: below the threshold
MAGI2_4, Q86UL8; [2]
  pKd: below the threshold
LDB3, O75112; [2]
  pKd: below the threshold
APBA3_1, O96018; [2]
  pKd: below the threshold
NHERF4_1, Q86UT5-2; [2]
  pKd: below the threshold
APBA1_1, Q02410; [2]
  pKd: below the threshold
NHERF4_2, Q86UT5; [2]
  pKd: below the threshold
GRID2IP_1, A4D2P6; [2]
  pKd: below the threshold
DLG2_2, Q15700; [2]
  pKd: below the threshold
Inadl_8, Q8NI35; [2]
  pKd: below the threshold
LIN7C, Q9NUP9; [2]
  pKd: below the threshold
LNX2_3, Q8N448; [2]
  pKd: below the threshold
PDLIM1, O00151; [2]
  pKd: below the threshold
TJP3_3, O95049; [2]
  pKd: below the threshold
AHNAK1, Q09666; [2]
  pKd: below the threshold
FRMPD2_1, Q68DX3; [2]
  pKd: below the threshold
Inadl_2, Q8NI35; [2]
  pKd: below the threshold
LRRC7, Q96NW7; [2]
  pKd: below the threshold
MAGI3_2, Q5TCQ9; [2]
  pKd: below the threshold
Inadl_4, Q8NI35; [2]
  pKd: below the threshold
SHANK1, Q9Y566; [2]
  pKd: below the threshold
MAGI2_3, Q86UL8; [2]
  pKd: below the threshold
DLG3_3, Q92796; [2]
  pKd: below the threshold
